Measured values from patent US20240301052A1 (LANOVA MEDICINES DEVELOPMENT, published 2024).
Numbering of substitutions follows the chain as printed. Like-named read-outs stand apart in the source and are kept apart here.

B1: RG-7599 (antibody, INN chains, looked up, V domains shown)
VH: EVQLVESGGGLVQPGGSLRLSCAASGFSFSDFAMSWVRQAPGKGLEWVATIGRVAFHTYYPDSMKGRFTISRDNSKNTLYLQMNSLRAEDTAVYYCARHRGFDVGHFDFWGQGTLVTVSS
VL: DIQMTQSPSSLSASVGDRVTITCRSSETLVHSSGNTYLEWYQQKPGKAPKLLIYRVSNRFSGVPSRFSGSGSGTDFTLTISSLQPEDFATYYCFQGSFNPLTFGQGTKVEIK
modifications: vedotin (MMAE) payload
B2: 62G10E4G8.p3.z8 hIgG1 (antibody, V domains shown)
VH: QVQLVQSGAEVKKPGASVKVSCKASGYTFPSYITHWVRQAPGQGLEWIGAIYPGNADTSYIQKFKGRVTMTADKSTSTVYMELSSLRSEDTAVYYCARGTYGTSAWFTYWGQGTLVTVSS
VL: EIVLTQSPATLSASPGERATLSCRARQNIGNNLYWYQQKPGQSPRLLIKYASQSISGIPSRFSGSGSGTDFTLTISSVQSEDFAVYFCQQSFSWPLTFGAGTKLEIK
notes: humanized hIgG1
B3: 62G10E4G8.p3.z11 hIgG1 (antibody, V domains shown)
VH: B2 VH with R38K, M70L, V79A
VL: B2 VL with A13V, V78L, A100Q
notes: humanized hIgG1

Tests used:
[1] = biological target: Cynomolgus SLC34A2 (Cynomolgus); test: FACS, cells expressing Cynomolgus SLC34A2
human SLC34A2 [2] = biological target: T1, human SLC34A2 (human, UniProt O95436 1-690); test: cell-based or functional assay
T1 sequence (looked up): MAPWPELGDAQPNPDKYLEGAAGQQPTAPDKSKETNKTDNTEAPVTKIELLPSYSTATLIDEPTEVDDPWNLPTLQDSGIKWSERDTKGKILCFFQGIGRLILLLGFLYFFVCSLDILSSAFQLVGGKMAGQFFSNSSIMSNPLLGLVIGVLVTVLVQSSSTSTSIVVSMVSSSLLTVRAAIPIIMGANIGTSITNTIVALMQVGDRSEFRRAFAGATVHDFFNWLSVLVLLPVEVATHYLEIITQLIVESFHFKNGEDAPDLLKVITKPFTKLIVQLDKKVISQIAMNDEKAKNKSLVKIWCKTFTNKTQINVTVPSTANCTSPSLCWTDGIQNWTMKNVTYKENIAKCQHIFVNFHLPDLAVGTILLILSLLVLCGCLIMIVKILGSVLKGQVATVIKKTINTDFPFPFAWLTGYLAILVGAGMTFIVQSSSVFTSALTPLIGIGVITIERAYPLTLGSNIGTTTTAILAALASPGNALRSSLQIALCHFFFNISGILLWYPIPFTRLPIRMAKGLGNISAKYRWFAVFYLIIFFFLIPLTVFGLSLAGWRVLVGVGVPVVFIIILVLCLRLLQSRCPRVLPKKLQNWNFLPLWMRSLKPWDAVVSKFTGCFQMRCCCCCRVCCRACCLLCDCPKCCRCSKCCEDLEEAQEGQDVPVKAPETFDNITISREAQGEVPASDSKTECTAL

rat SLC34A2 [3] = biological target: T2, rat SLC34A2 (rat, UniProt Q9JJ09 1-695); test: FACS, HEK293/Rat SLC34A2 cells
T2 construct: whole, on cells
T2 sequence (looked up): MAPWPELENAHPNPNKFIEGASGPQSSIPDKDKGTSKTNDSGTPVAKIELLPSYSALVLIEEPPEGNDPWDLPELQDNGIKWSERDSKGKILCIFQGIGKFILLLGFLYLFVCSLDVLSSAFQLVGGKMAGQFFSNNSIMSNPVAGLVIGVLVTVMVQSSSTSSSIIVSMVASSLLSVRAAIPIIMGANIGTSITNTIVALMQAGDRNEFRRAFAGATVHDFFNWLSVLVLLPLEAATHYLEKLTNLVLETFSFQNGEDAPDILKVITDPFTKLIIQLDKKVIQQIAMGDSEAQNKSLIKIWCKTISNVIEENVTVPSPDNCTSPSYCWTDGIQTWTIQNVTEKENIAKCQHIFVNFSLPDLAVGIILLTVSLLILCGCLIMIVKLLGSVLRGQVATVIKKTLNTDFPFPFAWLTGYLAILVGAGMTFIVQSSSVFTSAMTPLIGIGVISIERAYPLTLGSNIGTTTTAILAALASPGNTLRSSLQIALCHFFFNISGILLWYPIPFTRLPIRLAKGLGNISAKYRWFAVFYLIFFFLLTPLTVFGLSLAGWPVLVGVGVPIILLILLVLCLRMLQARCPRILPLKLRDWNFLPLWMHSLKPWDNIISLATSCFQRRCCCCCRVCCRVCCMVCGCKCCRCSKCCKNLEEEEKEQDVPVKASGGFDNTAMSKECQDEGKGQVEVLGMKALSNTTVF

human SLC34A2 [4] = biological target: T1, human SLC34A2; test: FACS, MDAH2774 cells
human SLC34A2 [5] = biological target: T1, human SLC34A2; test: FACS, HEK293/human SLC34A2 cells
mouse SLC34A2 [6] = biological target: T3, mouse SLC34A2 (mouse, UniProt Q9DBP0 1-697); test: FACS, HEK293/Mouse SLC34A2 cells
T3 construct: whole, on cells
T3 sequence (looked up): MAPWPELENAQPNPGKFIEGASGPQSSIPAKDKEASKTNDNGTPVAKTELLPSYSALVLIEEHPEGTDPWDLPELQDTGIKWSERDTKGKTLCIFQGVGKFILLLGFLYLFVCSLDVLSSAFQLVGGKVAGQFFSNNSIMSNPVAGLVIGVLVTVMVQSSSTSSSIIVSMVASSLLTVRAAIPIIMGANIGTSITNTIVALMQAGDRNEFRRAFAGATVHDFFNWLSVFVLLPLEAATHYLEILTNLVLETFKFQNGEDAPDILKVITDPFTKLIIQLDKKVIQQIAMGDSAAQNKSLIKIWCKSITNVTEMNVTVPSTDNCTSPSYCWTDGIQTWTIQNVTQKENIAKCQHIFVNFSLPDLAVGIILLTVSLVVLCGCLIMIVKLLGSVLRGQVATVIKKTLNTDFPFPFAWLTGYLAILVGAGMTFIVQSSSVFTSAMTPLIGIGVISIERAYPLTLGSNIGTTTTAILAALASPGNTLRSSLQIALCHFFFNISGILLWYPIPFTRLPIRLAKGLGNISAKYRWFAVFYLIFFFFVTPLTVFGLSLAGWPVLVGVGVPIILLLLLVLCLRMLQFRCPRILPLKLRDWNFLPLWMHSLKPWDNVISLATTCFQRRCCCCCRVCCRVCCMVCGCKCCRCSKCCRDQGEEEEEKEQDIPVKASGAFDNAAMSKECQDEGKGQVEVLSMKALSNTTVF

mouse SLC34A2 [7] = biological target: T3, mouse SLC34A2; test: FACS, HEK293/Mouse SLC34A2 cells; remark: listed apart in the source
rat SLC34A2 [8] = biological target: T2, rat SLC34A2; test: FACS, HEK293/Rat SLC34A2 cells; remark: listed apart in the source
human SLC34A2 [9] = biological target: T1, human SLC34A2; test: FACS, OVCAR3 cells
Procedure: The binding of these humanized antibodies to OVCAR3 cells was evaluated as described above, and the results are shown in FIG. 12A-D and Tables 16A-D.

human SLC34A2 [10] = biological target: T1, human SLC34A2; test: FACS, RMG-1 cells
Summary of the method: (§1)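 Cell-surface binding by flow cytometry: hu Abs on SLC34A2-expressing cells, 60 min at 4° C.; 2× FACS buffer wash; fluorescent-conjugated secondary 30 min at 4° C.; 2× wash, then acquisition.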

human SLC34A2 [11] = biological target: T1, human SLC34A2; test: FACS, OVCAR3 cells; remark: listed apart in the source
Summary of the method: as §1

Rhesus SLC34A2 = biological target: T4, Rhesus SLC34A2 (Rhesus, UniProt F7HDA3 1-690); test: FACS, HEK293/Rhesus SLC34A2 cells
T4 construct: whole, on cells
T4 sequence: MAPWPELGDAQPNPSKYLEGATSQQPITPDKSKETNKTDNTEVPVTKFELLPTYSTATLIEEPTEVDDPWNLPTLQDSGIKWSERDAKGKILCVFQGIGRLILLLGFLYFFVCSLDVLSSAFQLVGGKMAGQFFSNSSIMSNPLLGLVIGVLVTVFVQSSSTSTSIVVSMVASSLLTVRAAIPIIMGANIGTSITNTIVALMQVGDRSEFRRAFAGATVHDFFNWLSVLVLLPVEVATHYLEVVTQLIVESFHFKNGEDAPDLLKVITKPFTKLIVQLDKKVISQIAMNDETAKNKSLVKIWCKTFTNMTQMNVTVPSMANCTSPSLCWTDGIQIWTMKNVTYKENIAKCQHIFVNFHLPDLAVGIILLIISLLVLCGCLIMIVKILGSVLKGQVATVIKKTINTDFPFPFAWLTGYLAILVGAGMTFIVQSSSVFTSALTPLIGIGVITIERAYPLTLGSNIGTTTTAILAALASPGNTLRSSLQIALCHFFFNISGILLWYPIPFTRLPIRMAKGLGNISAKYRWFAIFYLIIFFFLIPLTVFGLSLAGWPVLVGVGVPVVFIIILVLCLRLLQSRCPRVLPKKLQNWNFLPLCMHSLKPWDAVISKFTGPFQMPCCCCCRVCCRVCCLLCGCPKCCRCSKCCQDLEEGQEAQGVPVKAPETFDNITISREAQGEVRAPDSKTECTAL

human SLC34A2 [12] = biological target: T1, human SLC34A2; test: FACS, HEK293/human SLC34A2 cells
Summary of the method: as §1

human SLC34A2 [13] = biological target: T1, human SLC34A2; test: cell-based or functional assay; remark: listed apart in the source

Binder | binding result (mouse SLC34A2 [7]) | binding result (rat SLC34A2 [8]) | EC50 (human SLC34A2 [9]) [nM] | Top (MFI) (human SLC34A2 [9]) | EC50 (human SLC34A2 [10]) [nM] | Top (human SLC34A2 [10]) [MFI] | EC50 (human SLC34A2 [11]) [nM] | EC50 (Rhesus SLC34A2) [nM] | Top (MFI) (Rhesus SLC34A2) | EC50 (human SLC34A2 [12]) [nM] | Top (human SLC34A2 [12]) [MFI] | also measured
B1 |  |  |  |  |  |  |  |  |  |  |  | EC50 [1]: 1080 nM; ADCC reporter EC50 (human SLC34A2 [2]): 1.31 nM; ADCC reporter Top (MFI) (human SLC34A2 [2]): 15700 MFI; ADCC-HEK293 (human SLC34A2 [2]): 2.02 nM; ADCC-OVCAR3 (human SLC34A2 [2]): 2.97 nM; Cytotoxic Effect - MDAH-2774 (human SLC34A2 [2]): 6.83 nM; Cytotoxic Effect - OVCAR3 (human SLC34A2 [2]): 0.325 nM; EC50 (rat SLC34A2 [3]): 715 nM; EC50 (human SLC34A2 [4]): 8.74 nM; EC50 (human SLC34A2 [5]): 8.25 nM; EC50 (mouse SLC34A2 [6]): 412 nM
B2 | binds | binds | 8.61 | 30000 | 11.1 | 10900 | 8.61 | 2.5 | 12200 | 4.42 | 31500 | 
B3 | binds | binds | 4.32 | 28200 | 11.4 | 11300 | 4.32 | 3.4 | 14700 | 5.07 | 31900 | ADCC reporter EC50 (human SLC34A2 [13]): 3.78 nM; ADCC reporter Top (MFI) (human SLC34A2 [13]): 116000 MFI
